Measured values as given in patent US7375080B1, “Immobilized lactoferrin (Im-LF) antimicrobial agents and uses thereof” (priority 1999, dated 2008).
Where “and” joins values, the source holds several entries; their conditions need not be identical. Identical values can stand only once.

Tests used:
[1] = test system: E. coli serotype O157:H7 (strain ATCC43895); assay type: cell-based
[2] = test system: E. coli O157:H7 strain ATCC43895; assay: Microbial adhesion assay: detachment of 3H-thymidine labeled bacteria from beef tissue by wash; assay type: cell-based

B1: lactoferrin (protein, UniProt P24627 20-708, looked up)
Lactotransferrin: APRKNVRWCTISQPEWFKCRRWQWRMKKLGAPSITCVRRAFALECIRAIAEKKADAVTLDGGMVFEAGRDPYKLRPVAAEIYGTKESPQTHYYAVAVVKKGSNFQLDQLQGRKSCHTGLGRSAGWIIPMGILRPYLSWTESLEPLQGAVAKFFSASCVPCIDRQAYPNLCQLCKGEGENQCACSSREPYFGYSGAFKCLQDGAGDVAFVKETTVFENLPEKADRDQYELLCLNNSRAPVDAFKECHLAQVPSHAVVARSVDGKEDLIWKLLSKAQEKFGKNKSRSFQLFGSPPGQRDLLFKDSALGFLRIPSKVDSALYLGSRYLTTLKNLRETAEEVKARYTRVVWCAVGPEEQKKCQQWSQQSGQNVTCATASTTDDCIVLVLKGEADALNLDGGYIYTAGKCGLVPVLAENRKSSKHSSLDCVLRPTEGYLAVAVVKKANEGLTWNSLKDKKSCHTAVDRTAGWNIPMGLIVNQTGSCAFDEFFSQSCAPGADPKSRLCALCAGDDQGLDKCVPNSKEKYYGYTGAFRCLAEDVGDVAFVKNDTVWENTNGESTADWAKNLNREDFRLLCLDGTRKPVTEAQSCHLAVAPNHAVVSRSDRAAHVKQVLLHQQALFGKNGKNCPDKFCLFKSETKNLLFNDNTECLAKLGGRPTYEEYLGTEYVTAIANLKKCSTSPLLEACAFLTR
[1]
  GROWTH (%): 36%
  effect on growth of the E. coli: reduced the growth
[2]
  % BACTERIAL CELLS DETACHED IN 1-MINUTE: 90% and 85% and 78%
  bacterial detachment: effective bacterial detachment
